Assays:
Assay in all cases: SPR
[1] = biological target: ADI-56046 (human)
[2] = biological target: C105 (human)
[3] = biological target: B38 (human)
[4] = biological target: P17 (human)
[5] = biological target: CB6 (human)
[6] = biological target: P2B-2F6 (human)

For “SARS-CoV-2 Omicron BA.1.1 RBD protein with His-tag, spike residues 319-541 (from UniProt P0DTC2 319-541) (domain or fragment)”, the Kd [1] was 1.5 µM.
With “SARS-CoV-2 Omicron BA.1 RBD protein with His-tag, spike residues 319-541 (from UniProt P0DTC2 319-541) (domain or fragment)” the Kd [1] was 2.3 µM.
Work on “SARS-CoV-2 Omicron BA.3 RBD protein with His-tag, spike residues 319-541 (from UniProt P0DTC2 319-541) (domain or fragment)” yielded a Kd [2] greater than 0.5 µM, a Kd [1] of 18 µM and a Kd [3] greater than 0.5 µM. It also gave a Kd [4] of 3.5 µM and a Kd [5] greater than 0.5 µM.
For “SARS-CoV-2 Omicron BA.2 RBD protein with His-tag, spike residues 319-541 (from UniProt P0DTC2 319-541) (domain or fragment)”, the Kd [6] was 5.1 µM.

From paper PMC9197780
